The target of the assay is Tomato sucrose synthase SuSy3-haplotype#1 (cv Moneymaker) (S. lycopersicum cv Moneymaker). Nature of the assay: native gel or EMSA; Native PAGE on Mini-PROTEAN TGX gel 4-20% of the IMAC-purified product; size estimated against a prestained protein ladder.

Results on one substance are retold here after paper PMC6205638, “Exploring natural genetic variation in tomato sucrose synthases on the basis of increased kinetic properties” (PLoS ONE, 2018).

For “Tomato sucrose synthase SuSy3-haplotype#1 (cv Moneymaker) (enzyme)”, the stoichiometry N is 4.
